Target: T1, {Pra}KTFKC plasmin-cleavable peptide, as Cholesterol-KTFKC-PEG2000 (not fully specified)
T1 chain: KTFKC

B1: Human plasmin (protein)
chain: KVYLSECKTGNGKNYRGTMSKTKNGITCQKWSSTSPHRPRFSPATHPSEGLEENYCRNPDNDPQGPWCYTTDPEKRYDYCDILECEEECMHCSGENYDGKISKTMSGLECQAWDSQSPHAHGYIPSKFPNKNLKKNYCRNPDRELRPWCFTTDPNKRWELCDIPRCTTPPPSSGPTYQCLKGTGENYRGNVAVTVSGHTCQHWSAQTPHTHNRTPENFPCKNLDENYCRNPDGKRAPWCHTTNSQVRWEYCKIPSCDSSPVSTEQLAPTAPPELTPVVQDCYHGDGQSYRGTSSTTTTGKKCQSWSSMTPHRHQKTPENYPNAGLTMNYCRNPDADKGPWCFTTDPSVRWEYCNLKKCSGTEASVVAPPPVVLLPDVETPSEEDCMFGNGKGYRGKRATTVTGTPCQDWAAQEPHRHSIFTPETNPRAGLEKNYCRNPDGDVGGPWCYTTNPRKLYDYCDVPQCAAPSFDCGKPQVEPKKCPGRVVGGCVAHPHSWPWQVSLRTRFGMHFCGGTLISPEWVLTAAHCLEKSPRPSSYKVILGAHQEVNLEPHVQEIEVSRLFLEPTRKDIALLKLSSPAVITDKVIPACLPSPNYVVADRTECFITGWGETQGTFGAGLLKEAQLPVIENKVCNRYEFLNGRVQSTELCAGHLAGGTDSCQGDSGGPLVCFEKDKYILQGVTSWGLGCARPNKPGVYVRVSRFVTWIEGVMRNN
**Q.** How did the “Annexin V staining of immobilized PPNs after plasmin incubation (phosphatidylserine exposure after removal of the PEG cloak)” value turn out when B1 was run?
**A.** PPNs incubated with ≥50 nM human plasmin had increased Annexin V staining
